Test results published in patent US20220363758A1 (SORRENTO THERAPEUTICS, published 2022).
Numbering of substitutions follows the chain as printed. “And” between values parts separate entries of the source, which are not always exact repeats. Equal entries are not always repeated.

B1: BZ1 heterodimeric antibody (bispecific antibody, human IgG1, lambda, L234A L235A)
chain: QVQLVQSGAEVKKPGASVKVSCKASGYTFISYTMHWVRQAPGQGLEWIGYINPRSGYTHYNQKLKDRATLTADKSASTAYMELSSLRSEDTAVYYCARSAYYDYDGFAYWGQGTLVTVSSGGGGSGGGGSGGGGSGGGGSDIQMTQSPSSLSASVGDRVTITCSASSSVSYMNWYQQKPGKAPKRLIYDTSKLASGVPSRFSGSGSGTDFTLTISSLQPEDFATYYCQQWSSNPPTFGGGTKVEIKGGGGSDKTHTCPPCPAPEAAGGPSVFLFPPKPKDTLMISRTPEVTCVVVDVSHEDPEVKFNWYVDGVEVHNAKTKPREEQYNSTYRVVSVLTVLHQDWLNGKEYKCKVSNKALPAPIEKTISKAKGQPREPQVYTLPPSREEMTKNQVSLSCAVKGFYPSDIAVEWESNGQPENNYKTTPPVLDSDGSFFLVSKLTVDKSRWQQGNVFSCSVMHEALHNHYTQKSLSLSPGK
heavy: QVQLVESGGGLVKPGGSLRLSCAASGFTFSDDYMSWIRQAPGKGLEWVASVSNGRPTTYYADSVRGRFTISRDNAKNSLYLQMNSLRAEDTAVYYCAREGWSGEFTDWGQGTLVTVSSASTKGPSVFPLAPSSKSTSGGTAALGCLVKDYFPEPVTVSWNSGALTSGVHTFPAVLQSSGLYSLSSVVTVPSSSLGTQTYICNVNHKPSNTKVDKRVEPKSCDKTHTCPPCPAPEAAGGPSVFLFPPKPKDTLMISRTPEVTCVVVDVSHEDPEVKFNWYVDGVEVHNAKTKPREEQYNSTYRVVSVLTVLHQDWLNGKEYKCKVSNKALPAPIEKTISKAKGQPREPQVYTLPPSREEMTKNQVSLWCLVKGFYPSDIAVEWESNGQPENNYKTTPPVLDSDGSFFLYSKLTVDKSRWQQGNVFSCSVMHEALHNHYTQKSLSLSPGK
light: not shown
notes: Isotype IgG1/LALA, knob-in-hole; also called BZ1 bispecific antibody
B2: BZ1S (bispecific antibody, human IgG1, lambda, L234A L235A)
first polypeptide (anti-CD3 scFv-Fc fusion): B1 chain
second polypeptide (anti-CD38 heavy chain): B1 heavy with N53S
third polypeptide (anti-CD38 light chain): not shown
notes: also called BZ1S heterodimeric antibody; BZ1S bispecific antibody

Tests used:
[1] = target: T1, Recombinant human CD38-his tag (human, UniProt P28907 43-300); experiment: SPR (Biacore T200), 1:1 binding model; antigen not named on the sheet, taken as recombinant human CD38-his from Example 9
T1 construct: also called recombinant CD38 antigen; CD38 antigen; not shown: his tag

[2] = target: T1, Recombinant human CD38-his tag; experiment: SPR (Biacore T200), 1:1 binding model; antigen not named on the sheet, taken as recombinant human CD38-his from Example 9; row printed 'BZ1 Pool2 PA', assigned to BZ1S through legends paragraph 161 and paragraph 163
Description: Kinetic interactions between bispecific antibodies and CD38 antigen were measured at 25° C. using Biacore T200 surface plasmon resonance (GE Healthcare). Anti-human fragment crystallizable (Fc) antibody (Human Antibody Capture Kit) was immobilized on a Series S CM5 sensor chip to approximately 10000 RU using standard N-Hydroxysuccinimide/1-ethyl-3-(-3-dimethylaminopropyl) carbodiimide hydrochloride (NHS/EDC) coupling methodology. Antibodies (bispecific or mAb, approximately 2 μg/mL) were captured for 60 seconds at a flow rate 10 μL/min. Recombinant human CD38-his tag was serially diluted in running buffer (1×HBS-EP+). All measurements were conducted with a flow rate of 30 μL/min. Surfaces were regenerated with 3M MgCl₂ for 60 s. A 1:1 (Langmuir) binding model was used to fit the data.
Biacore binding kinetics of the CD38×CD3 bispecific antibodies towards each individual antigen as the first and sole binding event were obtained for the target combination: CD38/CD3. The bispecific antibody was immobilized onto a biosensor surface via amine coupled anti human Fc antibodies on a CM5 sensor chip (GE Healthcare) according to the manufacturer's recommendation. […] Some kinetics analysis of the parental mAb (anti-CD38) was performed with 200 seconds association phase and 300 seconds dissociation phase.

Binder | Kd [1] | koff [1] | kon [1] [M⁻¹ s⁻¹] | Kd [2] [nM] | koff [2] [s⁻¹] | kon [2] [M⁻¹ s⁻¹]
B1 | 1.08 nM and 0.96 nM | 0.00213 s⁻¹ and 0.00205 s⁻¹ | 1.97e+06 | – | – | –
B2 | – | – | – | 0.909 | 0.00194 | 2.14e+06
